# Laboratory results from publication PMC7987339.
# Target: Hfq (Escherichia coli) (UniProt P0A6X3)
# Experiment: competition
# Settings: 10 nM (so in the source) Tris-HCl pH 8.0, 1 mM DTT, 1 mM MgCl2, 20 mM KCl, 10 mM Na phosphate pH 8.0, 12.5 ug/mL yeast tRNA; 15 min at 37 C; native 5% PAGE in 1X TBE …
# Chain of Hfq (Escherichia coli) (P0A6X3 whole entry): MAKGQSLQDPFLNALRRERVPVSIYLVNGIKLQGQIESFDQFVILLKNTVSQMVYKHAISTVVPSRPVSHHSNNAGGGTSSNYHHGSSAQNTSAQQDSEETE
sequence,measurement,value
GGACACCGUCGCUUAAAGUGACGGCAUAAUAAUAAAAAAAUGAAAUUCCUCUUUGACGGGCCAAUAGCGAUAUUGGCCAUUUUUUU [ChiX sRNA],binding,binds
